Entries after “also recorded” stand apart in the source; their conditions may differ. Where a name gives a salt, the structure may show the parent alone.
Key:
[1] = rat, in vivo, po, 30 mg/kg
GAA KO mice [2] = assay: Myozyme® tissue uptake in GAA KO mice with and without oral 1-DNJ-HCl (Example 3); assay type: in vivo, mouse; settings: 10, 100, 1000 mg/kg oral 1-DNJ-HCl with 10 mg/kg Myozyme® IV weekly; up to 7 days post injection
Experimental: Five groups of GAA KO mice were administered one of the following formulations: […]
(2) 10 mg/kg of Myozyme® IV once per week, for up to three weeks
Tissue homogenates were generated for analysis. Enzymatic activity as determined using a 4-MUG fluorogenic substrate assay.

[3] = tested on: cell lines derived from late-onset Pompe patients with the IVS 1 (−13 T>G) splicing defect; assay: GAA levels in cell lines derived from late-onset Pompe patients; assay type: cell-based, human; settings: alone and in combination with hrGAA
[4] = biological target: T1, recombinant human GAA (Myozyme®) (Homo sapiens, UniProt P10253); assay: SYPRO Orange thermal stability assay (heat-induced denaturation); assay type: physicochemical
T1 construct: purchased Genzyme Corp
Source text: The thermal stability assay utilizes heat to induce protein denaturation, which is monitored using a SYPRO Orange dye that fluoresces upon binding to hydrophobic amino acids (which are not exposed in a folded protein).
FIG. 5 depicts the results of a thermal stability assay that utilizes heat to induce protein denaturation, which is monitored using a SYPRO Orange dye that fluoresces upon binding to hydrophobic amino acids (which are not exposed in a folded protein).
Denaturation is monitored using a SYPRO Orange dye that fluoresces upon binding to hydrophobic amino acids (which are not exposed in a folded protein).
The thermal stability was performed at pH 7.4 for two formulations, which corresponds to the pH of the ER.

rhGAA (e.g., Myozyme®) = biological target: T2, rhGAA (e.g., Myozyme®) (Homo sapiens, UniProt P10253); assay: rhGAA enzyme inactivation in citrate anti-coagulated whole blood at 37° C. (Examples 7, 8); assay type: in vitro ADME
T2 construct: purchased Genzyme Corp; host or cells: Chinese hamster ovary cell line
Experimental: Aliquots were collected at 0, 2, 4, 8 and 24 hrs and centrifuged to obtain plasma. These plasma samples were then diluted in potassium acetate buffer (pH 4.0) and assayed for GAA activity using the 4-methylumbeliferyl-α-glucose (4-MUG) fluorogenic substrate. The measured GAA activity for individual samples at each time point was normalized to the 0 hr and expressed as % of initial activity. Data from 4 independent experiments were analyzed to obtain the mean (and standard deviation) and plotted versus time to assess the loss of enzyme activity over this time course.
Aliquots were collected at 0, 3 and 6 hrs and centrifuged to obtain plasma. These plasma samples were then diluted in potassium acetate buffer (pH 4.0) and assayed for GAA activity using the 4-methylumbeliferyl-α-glucose (4-MUG) fluorogenic substrate. The measured GAA activity for individual samples at each time point was normalized to the 0 hr and expressed as % of initial activity.
Moreover, since Myozyme® has a long plasma half-life (reported to be more than 3 hrs), there is a high probability that an appreciable amount of the enzyme remains in the circulation many hours after the infusion that would also be prone to inactivation.
Based on human plasma PK data, these concentrations are readily obtainable in the clinic.

GAA KO mice [5] = assay: rhGAA activity in heart and diaphragm of GAA KO mouse (Example 6); assay type: in vivo; settings: co-administered with 1-DNJ-HCl vs ERT monotherapy
Experimental: Heart and Diaphragm tissue homogenates were harvested and rhGAA activity was measured using the fluorogenic substrate (4-MUG).

GAA KO mice [6] = assay: Repeat subcutaneous dosing of rhGAA or rhGAA + 1-DNJ co-formulation in GAA KO mice (Example 13); assay type: in vivo, mouse; settings: 4 doses Lumizyme 20 mg/kg +/− 1-DNJ 30 mg/kg SQ at 3-4 day intervals, 3 days after the last dose
Experimental: 12-week old male GAA KO mice in groups of 7 were used in the present study. Each group of mice was administered one of the following treatments:
(2) Lumizyme® alone (20 mg/kg) delivered subcutaneously (SQ); or
(3) Co-formulated Lumizyme® (20 mg/kg) and 1-DNJ (30 mg/kg) SQ.
Each of the treatments were administered to their respective treatment group for a period of 2 weeks. The treatments were administered on Monday and Thursday of each week. SQ injections were administered between the shoulder blades of each mouse receiving treatment. A total of 4 doses was administered to each study animal. Diphenhydramine was administered intraperitoneally (IP) before the 3rd and 4th doses.
rhGAA and glycogen levels were determined according to the following sampling protocol. Blood was taken from each study animal after the 4th dose for plasma pharmacokinetic analysis. GAA activity, Western blots, and 1-DNJ levels were determined for plasma samples taken 2 and 4 hours after the last SQ dose.
Tissue samples were collected to determine rhGAA uptake 3 days following the last dose of the study (i.e., 3 days post dose 4). Tissue samples included heart, diaphragm, tongue, brain, spleen, liver, biceps, triceps, quadriceps, soleus, gastrocnemius, ventral skin and dorsal skin from the SQ injection site. Tissue samples were also collected to determine glycogen concentration 14 days following the last dose of the study (i.e., 14 days post dose 4).

[7] = Solubility of Lumizyme® in the presence of 1-DNJ-HCl and excipients (Example 12); assay type: physicochemical; settings: for Protein solubility: phosphate buffer
Experimental: A vial of Lumizyme® containing 52.5 mg protein, 210 mg mannitol, 0.5 mg polysorbate 80, 9.9 mg Na2HPO4×7H2O, and 31.2 mg NaH2PO4×H2O was dissolved in a minimal volume of water (1 mL added) yielding 1.2 mL of protein solution. Five 240-μL aliquots (each containing 10.5 mg protein) were transferred to Amicon Ultra 0.5 mL 30 kDa cutoff centrifugal filter devices and centrifuged for 10 min at 14,000×g in an Eppendorf centrifuge to obtain about 50 μL of retentate.
The original excipients present in the composition, i.e., mannitol and polysorbate 80 were exchanged for new excipients to test protein solubility (keeping the same buffer conditions). The following excipient solutions were prepared for the exchange using the original phosphate buffer:
For exchanging excipients, 5.2 mg Na2HPO4 and 27.1 mg NaH2PO4 were dissolved in 10.3 mL water to prepare the washing/excipient exchange phosphate buffer of approximately 26 mM. A volume of 8 mL of the buffer for excipient exchange was supplemented with 160 mg/mL of the small molecule ligand (to prepare excipient 1, 3, 4 and 5 solutions), while 2 mL was supplemented with 32 mg/mL ligand for excipient 2 (100 mM Arginine). Each of the excipients were dissolved in 2 mL of this buffer at the concentrations listed above.
An excipient solution was added to each separate filter device to achieve a total volume of 0.5 mL. Each filter device was centrifuged for 15 min at 14,000×g in a bench top Eppendorf centrifuge to retain approximately 25 μL. The units were re-filled with the same excipient solution to 0.5 mL and centrifuged again (this process was repeated 2 times). This procedure efficiently replaced mannitol and polysorbate 80 with excipients described above, diluting the original constituents by about 1:1000. All filtrates for each excipient were collected and examined for any protein leaks through the filter.
Each centrifugal filter device was inverted in a clean tube, and the concentrated protein solution was collected from each filter device by centrifugation for 2 min at 1000×g. The volume of each sample was determined (66 μL, corresponding to a target protein concentration of 160 mg/mL), and it was confirmed that no visible precipitate was observable in each sample. Samples were transferred back to their respective filter devices and centrifuged for an additional 5 min. Samples were then collected by inversion of the filters into clean tubes and centrifuging for 2 min at 1000×g to yield about 37 μL of retentate (corresponding to >280 mg/mL protein based on a total initial concentration of 10.5 mg protein).
The samples were vortexed and incubated for 1 hr at room temperature to equilibrate liquid and solid phases followed by centrifugation for 10 min at 14,000×g. Again, no visible precipitate was observed. Two-three 10 μL aliquots were taken from the supernatant of each sample (depending on available volume of the liquid phase), and diluted 1:1000 in two steps. Protein concentration was measured by UV absorbance at 280 nm, and the maximum protein solubility was calculated according to a highly reproducible calibration curve. The calibration curve was prepared by dissolving 6.8 mg of Myozyme® (alglucosidase alpha) lyophilized powder (containing 1.16 mg protein) in 1.16 mL of water followed by a serial dilution in deionized water. Absorbance was measured at 280 nm in a 1 cm light-pass quartz semi-micro cuvette using 0.5 mL aliquots.

Compound: OC[C@H]1NC[C@H](O)[C@@H](O)[C@@H]1O [1-DNJ-HCl, 1-deoxynojirimycin hydrochloride]
- increase of plasma half-life of rhGAA [1]: 2 fold
- Myozyme® tissue uptake (as a measure of GAA activity), effect of coadministration (GAA KO mice [2]): dose-dependent increase in Myozyme® uptake
- GAA levels [3]: increased GAA levels
- GAA thermostability (GAA's melting temperature) ([4]; 1, 10, 100 μM 1-DNJ-HCl, dose-dependent): increases GAA thermostability
- stability of Myozyme® (heat required to denature) on addition of the ASSC ([4]; pH 7.4, 100 μM 1-DNJ-HCl, vs Myozyme® alone, hydrochloride): required significantly more heat to denature
- loss of rhGAA activity in whole blood (rhGAA (e.g., Myozyme®); 2.5 μM 1-DNJ-HCl, 6-hr time course): ~20%
- effect on rhGAA enzyme inactivation in whole blood (rhGAA (e.g., Myozyme®); 50 μM 1-DNJ-HCl, Myozyme® 0.5 μM, up to 24 hrs, hydrochloride): stabilized rhGAA and prevented enzyme inactivation; also recorded: prevents rhGAA enzyme inactivation
- stabilizing rhGAA in whole blood, concentration comparison (rhGAA (e.g., Myozyme®); 50 and 100 μM 1-DNJ-HCl, 6 hrs): best for stabilizing rhGAA and preventing enzyme inactivation
- rhGAA uptake in the heart and diaphragm (GAA KO mice [5]): increased

Compound: alglucosidase alfa [Lumizyme®]
- rhGAA activity uptake, Biceps (GAA KO mice [6]): 56.0 nmol/mg/h
- rhGAA activity uptake, Diaphragm (GAA KO mice [6]): 4.2 nmol/mg/h
- rhGAA activity uptake, Gastrocnemius (GAA KO mice [6]): 2.0 nmol/mg/h
- rhGAA activity uptake, Heart (GAA KO mice [6]): 1.9 nmol/mg/h
- rhGAA activity uptake, Quadriceps (GAA KO mice [6]): 2.1 nmol/mg/h
- rhGAA activity uptake, Skin (GAA KO mice [6]): 75 nmol/mg/h
- rhGAA activity uptake, Soleus (GAA KO mice [6]): 2.7 nmol/mg/h
- rhGAA activity uptake, Tongue (GAA KO mice [6]): 2.7 nmol/mg/h
- rhGAA activity uptake, Triceps (GAA KO mice [6]): 88.0 nmol/mg/h
- Protein solubility ([7]; Arginine 100 mM, 1-DNJ-HCl 32 mg/mL): 201 mg/mL
- Protein solubility ([7]; Arginine + Glutamic acid 50 mM + 50 mM, 1-DNJ-HCl 160 mg/mL): 242 mg/mL
- Protein solubility ([7]; Gamma-cyclodextrin 10% (w/v), 1-DNJ-HCl 160 mg/mL): 114 mg/mL
- Protein solubility ([7]; PEG400 5% (w/v), 1-DNJ-HCl 160 mg/mL): 158 mg/mL
- Protein solubility ([7]; Proline 250 mM, 1-DNJ-HCl 160 mg/mL): 195 mg/mL
- solubility of the protein ([7]; without the added excipients): about 80 mg/mL

— US12419937B2, “High concentration alpha-glucosidase compositions for the treatment of Pompe disease” (Amicus Therapeutics, Inc., priority 2012, dated 2025)
